In US20130011401A1:

Target: human monomeric APP-tagged SIRPα V domain protein (human) (UniProt P78324)
Assay: BiaCORE SPR; binder captured on Protein A, monovalent APP-tagged SIRPα V domain as analyte (Method 2.1)

Kd: 3000 nM
Substance: CD47-ECD IgG1 Fc fusion protein (from UniProt Q08722 19-141)
